From paper PMC3539201 (Journal of cell science, 2008)

T1: torsinA (endogenous, 293T cells) (human (endogenous in 293T), UniProt O14656 21-332)
T1 sequence (looked up): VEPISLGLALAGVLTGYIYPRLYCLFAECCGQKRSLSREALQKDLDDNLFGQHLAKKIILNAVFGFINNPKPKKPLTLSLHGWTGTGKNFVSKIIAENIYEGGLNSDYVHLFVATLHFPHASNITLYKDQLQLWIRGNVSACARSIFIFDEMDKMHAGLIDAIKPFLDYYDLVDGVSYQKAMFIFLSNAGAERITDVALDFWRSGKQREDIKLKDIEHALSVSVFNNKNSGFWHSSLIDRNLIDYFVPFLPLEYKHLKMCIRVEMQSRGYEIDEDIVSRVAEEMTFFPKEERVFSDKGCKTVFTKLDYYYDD


Target: T1, torsinA (endogenous, 293T cells)
Experiment: co-IP

percentage immunoprecipitated from lysates by torsinA antibodies [%]	Binder
11	GFP-KASH-3α (domain or fragment, mouse, UniProt Q4FZC9 917-975, looked up) CSLLQKACRVALPLQLLLLLFLLLLFLLPAGEEERSCALANNFARSFALMLRYNGPPPT
12	GFP-KASH-2 (domain or fragment) not shown
21	GFP-KASH-1 (domain or fragment) not shown
